Measured values taken from PMC12030614.
* marks the point of attachment. AMC = Cc1cc(=O)oc2cc(N*)ccc12

Key:
[1] = molecular target: Ta-P7 (Triticum aestivum L.)
[2] = molecular target: Triticain-α (Triticum aestivum L.)
[3] = molecular target: Ta-V6 (Triticum aestivum L.)

KM of Ac-PLVQ-AMC hydrolysis, pH 3.6, 37 °C [1]: 44.7 µM
KM of Ac-PLVQ-AMC hydrolysis, pH 4.6, 37 °C [1]: 32.2 µM
KM of Ac-PLVQ-AMC hydrolysis, pH 5.6, 37 °C [1]: 24.5 µM
KM of Ac-PLVQ-AMC hydrolysis, pH 6.5, 37 °C [1]: 31.4 µM
KM of Ac-PLVQ-AMC hydrolysis, pH 7.5, 37 °C [1]: 35.3 µM
KM of Ac-PLVQ-AMC hydrolysis, pH 3.6, 37 °C [2]: 21.5 µM
KM of Ac-PLVQ-AMC hydrolysis, pH 4.6, 37 °C [2]: 34.6 µM
KM of Ac-PLVQ-AMC hydrolysis, pH 5.6, 37 °C [2]: 46 µM
KM of Ac-PLVQ-AMC hydrolysis, pH 6.5, 37 °C [2]: 49.4 µM
KM of Ac-PLVQ-AMC hydrolysis, pH 7.5, 37 °C [2]: 583 µM
KM of Ac-PLVQ-AMC hydrolysis, pH 3.6, 37 °C [3]: 16.4 µM
KM of Ac-PLVQ-AMC hydrolysis, pH 4.6, 37 °C [3]: 20.5 µM
KM of Ac-PLVQ-AMC hydrolysis, pH 5.6, 37 °C [3]: 22.6 µM
KM of Ac-PLVQ-AMC hydrolysis, pH 6.5, 37 °C [3]: 26.9 µM
KM of Ac-PLVQ-AMC hydrolysis, pH 7.5, 37 °C [3]: 29.2 µM
B1: acetyl-Pro-Leu-Val-Gln-7-amino-4-methylcoumarin (peptide)
peptide: Ac-PLVQ-{AMC}
SMILES: CC(=O)N1CCC[C@H]1C(=O)N[C@@H](CC(C)C)C(=O)N[C@H](C(=O)N[C@@H](CCC(N)=O)C(=O)Nc1ccc2c(C)cc(=O)oc2c1)C(C)C
